Data on 2 molecules can be found in PMC4522956 (2015).

Assay [1] has as its target T1, HIF-1β PASb labeled with FITC (human (cDNA library from the breast …, UniProt P27540 349-467, FITC (fluorescein isothiocyanate) label, sites not stated)). Description: FP; PASb-3α with linoleic acid, at equilibrium.
Assay [2] concerns the target T1, HIF-1β PASb labeled with FITC. Description: FP; PASb-3α with bacterial lipids, at equilibrium.
Assay [3] shares this target. Description: FP; at equilibrium.

T1 sequence (P27540 349-467): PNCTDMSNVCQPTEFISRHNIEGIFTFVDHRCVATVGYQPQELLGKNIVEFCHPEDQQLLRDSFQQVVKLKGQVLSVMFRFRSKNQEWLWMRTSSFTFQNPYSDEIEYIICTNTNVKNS

B1: C-terminal Per-Arnt-Sim (PASb) domain of human HIF-3α9 (domain or fragment)
chain: GAFLSRHSLDMKFTYCDDRIAEVAGYSPDDLIGCSAYEYIHALDSDAVSKSIHTLLSKGQAVTGQYRFLARSGGYLWTQTQATVVSGGRGPQSESIVCVHFLISQVEET
The Kd is the free concentration of one partner at which half of the binding sites on the other are occupied at equilibrium, for simple one-to-one binding. High values mean weaker binding, low ones tighter binding. As for B1, the results for the Kd in assay [1] and in assay [2] were 10 µM and 12 µM, respectively.

B2: HIF-1α PASb (domain or fragment)
chain: not shown
As for B2, in assay [3], the Kd stood at 36 µM.
